# Results reported in paper PMC8808565 (iScience, 2009).
# Target: SARS-CoV-2 (2019-nCoV) Spike RBD-His Recombinant Protein, Biotinylated (SARS-CoV-2, UniProt P0DTC2, biotin (biotinylated; site not stated))
# Test: SPR
binder,measurement,value
"GIGDPVTCLKSGAICHPVFCPRRYKQIGTCGLPGTKCCKKP [Human beta defensin 2 (hBD-2), recombinant]",Kd,1.8 ± 1.1 µM
